Test results reported in PMC7567794 (Scientific Reports, 2020).

B1: D3h44 Fab L-H91E (Fab, V domains shown)
VH: EVQLVESGGGLVQPGGSLRLSCAASGFNIKEYYMHWVRQAPGKGLEWVGLIDPEQGNTIYDPKFQDRATISADNSKNTAYLQMNSLRAEDTAVYYCARDTAAYFDYWGQGTLVTVSS
VL: DIQMTQSPSSLSASVGDRVTITCRASRDIKSYLNWYQQKPGKAPKVLIYYATSLAEGVPSRFSGSGSGTDYTLTISSLQPEDFATYYCLQEGESPWTFGQGTKVEIK
notes: as the heavy chain of m2 (PDB 1JPS chain H); as the light chain of m2 (PDB 1JPS chain L) with the stated change; Tag as for m2; source: ExpiCHO, purified (Ni-NTA, SEC)
B2: D3h44 Fab H-N57Y (Fab, V domains shown)
VH: EVQLVESGGGLVQPGGSLRLSCAASGFNIKEYYMHWVRQAPGKGLEWVGLIDPEQGYTIYDPKFQDRATISADNSKNTAYLQMNSLRAEDTAVYYCARDTAAYFDYWGQGTLVTVSS
VL: DIQMTQSPSSLSASVGDRVTITCRASRDIKSYLNWYQQKPGKAPKVLIYYATSLAEGVPSRFSGSGSGTDYTLTISSLQPEDFATYYCLQHGESPWTFGQGTKVEIK
notes: as the heavy chain of m2 (PDB 1JPS chain H) with the stated change; as the light chain of m2 (PDB 1JPS chain L); Tag as for m2; source: ExpiCHO, purified (Ni-NTA, SEC)
B3: D3h44 Fab H-I59H (Fab, V domains shown)
VH: EVQLVESGGGLVQPGGSLRLSCAASGFNIKEYYMHWVRQAPGKGLEWVGLIDPEQGNTHYDPKFQDRATISADNSKNTAYLQMNSLRAEDTAVYYCARDTAAYFDYWGQGTLVTVSS
VL: DIQMTQSPSSLSASVGDRVTITCRASRDIKSYLNWYQQKPGKAPKVLIYYATSLAEGVPSRFSGSGSGTDYTLTISSLQPEDFATYYCLQHGESPWTFGQGTKVEIK
notes: as for B2
B4: D3h44 Fab H-A101V (Fab, V domains shown)
VH: EVQLVESGGGLVQPGGSLRLSCAASGFNIKEYYMHWVRQAPGKGLEWVGLIDPEQGNTIYDPKFQDRATISADNSKNTAYLQMNSLRAEDTAVYYCARDTVAYFDYWGQGTLVTVSS
VL: DIQMTQSPSSLSASVGDRVTITCRASRDIKSYLNWYQQKPGKAPKVLIYYATSLAEGVPSRFSGSGSGTDYTLTISSLQPEDFATYYCLQHGESPWTFGQGTKVEIK
notes: as for B2
B5: D3h44 Fab L-N34D/L-H91S double-point mutant (Fab, V domains shown)
VH: EVQLVESGGGLVQPGGSLRLSCAASGFNIKEYYMHWVRQAPGKGLEWVGLIDPEQGNTIYDPKFQDRATISADNSKNTAYLQMNSLRAEDTAVYYCARDTAAYFDYWGQGTLVTVSS
VL: DIQMTQSPSSLSASVGDRVTITCRASRDIKSYLDWYQQKPGKAPKVLIYYATSLAEGVPSRFSGSGSGTDYTLTISSLQPEDFATYYCLQSGESPWTFGQGTKVEIK
notes: as the heavy chain of m2 (PDB 1JPS chain H); as the light chain of m2 (PDB 1JPS chain L) with the stated changes; Tag as for m2; source: ExpiCHO, purified (Ni-NTA, SEC)
B6: D3h44 Fab H-K30Q/H-E54H double-point mutant (Fab, V domains shown)
VH: EVQLVESGGGLVQPGGSLRLSCAASGFNIQEYYMHWVRQAPGKGLEWVGLIDPHQGNTIYDPKFQDRATISADNSKNTAYLQMNSLRAEDTAVYYCARDTAAYFDYWGQGTLVTVSS
VL: DIQMTQSPSSLSASVGDRVTITCRASRDIKSYLNWYQQKPGKAPKVLIYYATSLAEGVPSRFSGSGSGTDYTLTISSLQPEDFATYYCLQHGESPWTFGQGTKVEIK
notes: as the heavy chain of m2 (PDB 1JPS chain H) with the stated changes; as the light chain of m2 (PDB 1JPS chain L); Tag as for m2; source: ExpiCHO, purified (Ni-NTA, SEC)
B7: D3h44 Fab H-A101S/H-A102H double-point mutant (Fab, V domains shown)
VH: EVQLVESGGGLVQPGGSLRLSCAASGFNIKEYYMHWVRQAPGKGLEWVGLIDPEQGNTIYDPKFQDRATISADNSKNTAYLQMNSLRAEDTAVYYCARDTSHYFDYWGQGTLVTVSS
VL: DIQMTQSPSSLSASVGDRVTITCRASRDIKSYLNWYQQKPGKAPKVLIYYATSLAEGVPSRFSGSGSGTDYTLTISSLQPEDFATYYCLQHGESPWTFGQGTKVEIK
notes: as for B6
B8: D3h44 Fab L-N34D (Fab, V domains shown)
VH: EVQLVESGGGLVQPGGSLRLSCAASGFNIKEYYMHWVRQAPGKGLEWVGLIDPEQGNTIYDPKFQDRATISADNSKNTAYLQMNSLRAEDTAVYYCARDTAAYFDYWGQGTLVTVSS
VL: DIQMTQSPSSLSASVGDRVTITCRASRDIKSYLDWYQQKPGKAPKVLIYYATSLAEGVPSRFSGSGSGTDYTLTISSLQPEDFATYYCLQHGESPWTFGQGTKVEIK
notes: as for B1
B9: D3h44 Fab L-H91S (Fab, V domains shown)
VH: EVQLVESGGGLVQPGGSLRLSCAASGFNIKEYYMHWVRQAPGKGLEWVGLIDPEQGNTIYDPKFQDRATISADNSKNTAYLQMNSLRAEDTAVYYCARDTAAYFDYWGQGTLVTVSS
VL: DIQMTQSPSSLSASVGDRVTITCRASRDIKSYLNWYQQKPGKAPKVLIYYATSLAEGVPSRFSGSGSGTDYTLTISSLQPEDFATYYCLQSGESPWTFGQGTKVEIK
notes: as for B1
B10: D3h44 Fab H-K30Q (Fab, V domains shown)
VH: EVQLVESGGGLVQPGGSLRLSCAASGFNIQEYYMHWVRQAPGKGLEWVGLIDPEQGNTIYDPKFQDRATISADNSKNTAYLQMNSLRAEDTAVYYCARDTAAYFDYWGQGTLVTVSS
VL: DIQMTQSPSSLSASVGDRVTITCRASRDIKSYLNWYQQKPGKAPKVLIYYATSLAEGVPSRFSGSGSGTDYTLTISSLQPEDFATYYCLQHGESPWTFGQGTKVEIK
notes: as for B2
B11: D3h44 Fab L-H91N (Fab, V domains shown)
VH: EVQLVESGGGLVQPGGSLRLSCAASGFNIKEYYMHWVRQAPGKGLEWVGLIDPEQGNTIYDPKFQDRATISADNSKNTAYLQMNSLRAEDTAVYYCARDTAAYFDYWGQGTLVTVSS
VL: DIQMTQSPSSLSASVGDRVTITCRASRDIKSYLNWYQQKPGKAPKVLIYYATSLAEGVPSRFSGSGSGTDYTLTISSLQPEDFATYYCLQNGESPWTFGQGTKVEIK
notes: as for B1
B12: D3h44 Fab L-H91Q (Fab, V domains shown)
VH: EVQLVESGGGLVQPGGSLRLSCAASGFNIKEYYMHWVRQAPGKGLEWVGLIDPEQGNTIYDPKFQDRATISADNSKNTAYLQMNSLRAEDTAVYYCARDTAAYFDYWGQGTLVTVSS
VL: DIQMTQSPSSLSASVGDRVTITCRASRDIKSYLNWYQQKPGKAPKVLIYYATSLAEGVPSRFSGSGSGTDYTLTISSLQPEDFATYYCLQQGESPWTFGQGTKVEIK
notes: as for B1
B13: D3h44 Fab H-Y33Q/H-A101R double-point mutant (Fab, V domains shown)
VH: EVQLVESGGGLVQPGGSLRLSCAASGFNIKEYQMHWVRQAPGKGLEWVGLIDPEQGNTIYDPKFQDRATISADNSKNTAYLQMNSLRAEDTAVYYCARDTRAYFDYWGQGTLVTVSS
VL: DIQMTQSPSSLSASVGDRVTITCRASRDIKSYLNWYQQKPGKAPKVLIYYATSLAEGVPSRFSGSGSGTDYTLTISSLQPEDFATYYCLQHGESPWTFGQGTKVEIK
notes: as for B6

The binders below were run against T1, tissue factor (S33 to E251) (Homo sapiens, UniProt P13726) (assay: SPR; Biacore 8K; TF immobilised on a CM5 chip by amine coupling (450-750 response units); Fab as analyte; single-cycle kinetics, association 120 s, dissociation 1800 s, no regeneration; PBS with 0.005% Tween-20; three measurements). Settings: both partners purified.
T1 construct: tissue factor (TF), residues S33 to E251; the antigen of the antibody D3h44 in PDB 1JPS; The tag was removed with Ulp1; tag-free TF was used; Antigen residues named in the text (S202, K169, P194, I152) follow the numbering of PDB 1JPS, not that of the construct limits; also called TF; antigen; source: E. coli BL21 (DE3), purified (Ni-NTA, SEC); not shown: His6, N-terminal, cleaved; SUMO, …
T1 sequence (P13726 33-251): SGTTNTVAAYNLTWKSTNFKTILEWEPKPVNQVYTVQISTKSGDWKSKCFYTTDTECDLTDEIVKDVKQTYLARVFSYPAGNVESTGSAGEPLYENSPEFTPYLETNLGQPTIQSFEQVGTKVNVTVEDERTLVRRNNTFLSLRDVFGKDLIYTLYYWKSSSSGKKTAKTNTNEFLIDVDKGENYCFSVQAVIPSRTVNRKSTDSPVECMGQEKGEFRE
Binder B1 has a Kd of 20 pM, a koff of 2.7e-05 s⁻¹ and a kon of 1.4e+06 M⁻¹ s⁻¹.
For B2, the Kd was 15 pM, the koff was 1.8e-05 s⁻¹ and the kon was 1.3e+06 M⁻¹ s⁻¹.
With B3 the Kd was 15000 pM, the koff was 0.038 s⁻¹ and the kon was 3.6e+06 M⁻¹ s⁻¹.
For B4, the Kd was 140 pM, the koff was 0.00018 s⁻¹ and the kon was 1.3e+06 M⁻¹ s⁻¹.
Binder B5 has a Kd of 25 pM, a koff of 3e-05 s⁻¹ and a kon of 1.2e+06 M⁻¹ s⁻¹.
Binder B6 has a Kd of 29 pM, a koff of 2.6e-05 s⁻¹ and a kon of 940000 M⁻¹ s⁻¹.
B7 was tested, and the Kd was 150 pM, the koff was 0.00018 s⁻¹ and the kon was 1.2e+06 M⁻¹ s⁻¹.
B8 gave a Kd of 310 pM, a koff of 0.00062 s⁻¹ and a kon of 2e+06 M⁻¹ s⁻¹.
For B9, the Kd was 17000 pM, the koff was 0.059 s⁻¹ and the kon was 1.6e+07 M⁻¹ s⁻¹.
Work on B10 yielded a Kd of 97 pM, a koff of 0.00014 s⁻¹ and a kon of 1.5e+06 M⁻¹ s⁻¹.
Binder B11 has a Kd of 200 pM, a koff of 0.00026 s⁻¹ and a kon of 1.3e+06 M⁻¹ s⁻¹.
For B12, the Kd was 230 pM, the koff was 0.00038 s⁻¹ and the kon was 1.7e+06 M⁻¹ s⁻¹.
B13: no binding.
